Experimental data taken from patent publication US20100098683A1 (Dana-Farber, published 2010).

Biological target: T1, hFc-MUC1-C/ED (MUC1-C extracellular domain fused to human Fc) (human, UniProt P15941 1098-1155, secreted from CHO-K1 cells; the filing reports N-linked glycosylation of MUC1-C at Asn-36)
T1 construct: Purified on protein A; also called hFc-MUC1-C extracellular domain; not shown: human Fc fragment (hFc) amplified from the CD5-IgG1 plasmid (Aruffo et al., 1990)
T1 sequence: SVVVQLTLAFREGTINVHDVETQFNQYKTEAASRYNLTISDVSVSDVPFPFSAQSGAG
Test: SPR (BIACORE 3000, 25 C), galectin-3(63-250) amine-coupled to a CM5 chip, hFc-MUC1-C/ED injected at 0-100 nM, 1:1 binding with drifting baseline; galectin-3(63-250), CRD fragment

B1: galectin-3(63-250) (ligand)
chain: YHGAPGAYPGAPAPGVYPGPPSGPGAYPSSGQPSAPGAYPATGPYGAPAGPLIVPYNLPLPGGVVPRMLITILGTVKPNANRIALDFQRGNDVAFHFNPRFNENNRRVIVCNTKLDNNWGREERQSVFPFESGKPFKIQVLVEPDHFKVAVNDAHLLQYNHRVKKLNEISKLGISGDIDLTSASYTMI
notes: Fragment that contains the CRD, purified from E. coli and coupled to a CM5 chip
For B1, the Kd was 9.8 nM.
